Assay results reported in IntAct's records for PubMed 21847091.

B1: Abscisic acid receptor PYR1 (Arabidopsis thaliana (Mouse-ear cress)), O49686 (parent)
chain: MPSELTPEERSELKNSIAEFHTYQLDPGSCSSLHAQRIHAPPELVWSIVRRFDKPQTYKHFIKSCSVEQNFEMRVGCTRDVIVISGLPANTSTERLDILDDERRVTGFSIIGGEHRLTNYKSVTTVHRFEKENRIWTVVLESYVVDMPEGNSEDDTRMFADTVVKLNLQKLATVAEAMARNSGDGSGSQVT

Variants of: B1
Conditions: with HAB1, Q9CAJ0
HAB1, Q9CAJ0, sequence (Q9CAJ0 whole entry): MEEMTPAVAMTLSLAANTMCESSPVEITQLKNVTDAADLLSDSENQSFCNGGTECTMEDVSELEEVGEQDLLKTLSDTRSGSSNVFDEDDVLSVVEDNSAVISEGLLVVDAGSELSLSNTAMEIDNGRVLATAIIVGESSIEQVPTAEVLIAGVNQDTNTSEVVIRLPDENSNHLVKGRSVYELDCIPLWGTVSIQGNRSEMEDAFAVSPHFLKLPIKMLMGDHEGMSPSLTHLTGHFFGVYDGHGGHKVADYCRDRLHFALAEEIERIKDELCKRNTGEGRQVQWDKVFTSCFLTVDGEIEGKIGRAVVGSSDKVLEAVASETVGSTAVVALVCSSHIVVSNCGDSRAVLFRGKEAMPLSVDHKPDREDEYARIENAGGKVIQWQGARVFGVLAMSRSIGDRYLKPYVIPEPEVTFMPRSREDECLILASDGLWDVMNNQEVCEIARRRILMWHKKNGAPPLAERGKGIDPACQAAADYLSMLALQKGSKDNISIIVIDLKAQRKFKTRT

Variant | effect of a mutation on the interaction
H60P | increasing interaction
